Source: publication PMC5299410
“And” between values parts separate entries of the source, which are not always exact repeats. Identical values can stand only once.

Key:
Cys32 [1] = target: T1, Cys32 (UniProt position 33, FWAEWCGPCKM); assay: chemical modification; conditions: 120 mM NaCl plus buffer components, 30 mM ACES, 15.6 mM ethanolamine, 15.6 mM TRIS, 0.1 mM DTPA, reduced (dithiol) thioredoxin, DTT removed by gel filtration, folded
Cys35 = Cys35 (UniProt position 36, EWCGPCKMIAP); assay: chemical modification; conditions: 120 mM NaCl plus buffer components, 30 mM ACES, 15.6 mM ethanolamine, 15.6 mM TRIS, 0.1 mM DTPA, reduced (dithiol) thioredoxin, DTT removed by gel filtration, folded
Cys32 [2] = target: T1, Cys32; assay: fluorescence; conditions: not stated (no added NaCl mentioned); 15 mM acetic acid, 15 mM MES, 30 mM Tris, 100 μM dtpa, 2 mM DTT; reduced (dithiol) thioredoxin in the presence of 2 mM DTT; folded

## Thioredoxin 1 (EcTRX) L94A (Escherichia coli; L94A)
Cys32 [1]
  pKa: 6.9 ± 0.1
Cys35
  pKa: 8.8 ± 0.1

## Thioredoxin 1 (EcTRX) N106A (Escherichia coli; N106A)
Cys32 [1]
  pKa: 6.5 ± 0.1
Cys35
  pKa: 8.9 ± 0.1

## Thioredoxin 1 (EcTRX) E101G (Escherichia coli; E101G)
Cys32 [2]
  pKa: 7.1 ± 0.1 and 7.10 ± 0.04
Cys32 [1]
  pKa: 6.80 ± 0.20
Cys35
  pKa: 9.0 ± 0.2

## Thioredoxin 1 (EcTRX), wild type (Escherichia coli)
Cys32 [2]
  pKa: 7.5 ± 0.2 and 7.23 ± 0.06
Cys32 [1]
  pKa: 7.3 ± 0.3
Cys35
  pKa: 9.3 ± 0.3

## Thioredoxin 1 (EcTRX) L107A (Escherichia coli; L107A)
Cys32 [1]
  pKa: 7.3 ± 0.1
